Data published in patent publication US20100330078A1 (Pfizer, published 2010).
Numbering of substitutions follows the chain as printed.

B1: 22B5 wild type IgG1 (antibody, V domains shown)
VH: QLQLQESGPGLVKPSETLSLTCTVSGGSISSSSYWGWIRQPPGKGLEWIGSIYYSGRNYNNPSLKSRVTISVDTSKNQFSLKLSSVTAADTAVYYCARHYYGSGSSYYYYDLDVWGQGTTVTVSS
VL: EIVLTQSPATLSLSPGERATLSCRASQSVSSYLAWYQQKPGQAPRLLIYDASNRATGIPARFSGSGSGTDFTLTISSLEPEDFAVYYCQQRSNWPLTFGGGTKVEIK
notes: Human IgG1 with wild type Fc (no DLE mutations); also called 22B5 wt IgG1; wt 22B5 IgG1
B2: 1D9 (antibody, IgG1, V domains shown)
VH: QVQLVESGGGVVQPGRSLRLSCAASGFPFSTYAMHWVRQAPGKGLEWVAVISYDGSNKYYADSVKGRFTISRDNSKNTLYLQMNSLRAEDTAVYYCARESPPIYYYYGMDVWGQGTTVTVSS
VL: B1 VL with L96R, G100Q
notes: also called 1D9 G1; I D9
B3: 22B5 IgG4 (antibody, V domains shown)
VH: B1 VH
VL: B1 VL
B4: 22B5 IgG2 (antibody, V domains shown)
VH: B1 VH
VL: B1 VL
B5: 1D9/DLE (antibody, V domains shown)
VH: B2 VH
VL: B1 VL with L96R, G100Q
notes: also called 1D9 IgG1 DLE; 1D9 G1 DLE
B6: 2D2/DLE (antibody, IgG1, V domains shown)
VH: QVQLVESGGGVVQPGRSLRLSCAASGFTFSSYAMHWVRQAPGKGLEWVAVISFDGSTKYYADSVKGRFTISRDNSKNTLDLQMNSLRAEDTALYYCAREYWGTYYYGTDVWGQGTTVIVSS
VL: B1 VL with S30N, L96R, G100Q
notes: Constant regions: see the note of 1D9/DLE; also called 2D2 IgG1 DLE

Assays:
[1] = molecular target: T1, human integrin α5β1 on cells (endogenous, HUVEC; tumor or endothelial-expressed) (human, UniProt P08648 42-1049; P05556 21-798); experiment: cell-based or functional assay
T1 sequence (P08648 42-1049, chain 1 of 2): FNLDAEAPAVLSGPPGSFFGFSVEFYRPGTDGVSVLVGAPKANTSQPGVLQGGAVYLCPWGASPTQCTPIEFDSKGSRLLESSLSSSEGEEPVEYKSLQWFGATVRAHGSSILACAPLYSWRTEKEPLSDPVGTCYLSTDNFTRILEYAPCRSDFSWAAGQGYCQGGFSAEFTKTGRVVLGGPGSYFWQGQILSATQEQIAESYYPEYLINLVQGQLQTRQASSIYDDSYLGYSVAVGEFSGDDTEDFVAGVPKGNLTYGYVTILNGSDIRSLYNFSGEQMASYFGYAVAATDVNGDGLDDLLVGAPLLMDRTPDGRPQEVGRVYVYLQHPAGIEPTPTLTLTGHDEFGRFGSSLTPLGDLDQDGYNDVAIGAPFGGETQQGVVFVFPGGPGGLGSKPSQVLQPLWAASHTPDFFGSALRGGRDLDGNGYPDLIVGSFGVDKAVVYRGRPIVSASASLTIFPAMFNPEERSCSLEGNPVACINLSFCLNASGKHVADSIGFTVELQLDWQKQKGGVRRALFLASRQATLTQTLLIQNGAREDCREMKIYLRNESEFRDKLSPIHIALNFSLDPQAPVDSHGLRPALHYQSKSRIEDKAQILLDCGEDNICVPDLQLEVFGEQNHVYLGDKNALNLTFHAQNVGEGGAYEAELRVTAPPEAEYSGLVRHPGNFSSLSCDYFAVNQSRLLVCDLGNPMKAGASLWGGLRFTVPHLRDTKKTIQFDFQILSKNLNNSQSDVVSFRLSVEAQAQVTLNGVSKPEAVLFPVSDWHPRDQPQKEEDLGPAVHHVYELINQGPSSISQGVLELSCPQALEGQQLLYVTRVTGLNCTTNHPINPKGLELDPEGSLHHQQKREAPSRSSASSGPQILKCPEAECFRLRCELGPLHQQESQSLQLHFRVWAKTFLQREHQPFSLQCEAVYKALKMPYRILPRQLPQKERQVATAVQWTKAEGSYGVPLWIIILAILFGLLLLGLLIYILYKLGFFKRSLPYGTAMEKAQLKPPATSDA
T1 sequence (P05556 21-798, chain 2 of 2): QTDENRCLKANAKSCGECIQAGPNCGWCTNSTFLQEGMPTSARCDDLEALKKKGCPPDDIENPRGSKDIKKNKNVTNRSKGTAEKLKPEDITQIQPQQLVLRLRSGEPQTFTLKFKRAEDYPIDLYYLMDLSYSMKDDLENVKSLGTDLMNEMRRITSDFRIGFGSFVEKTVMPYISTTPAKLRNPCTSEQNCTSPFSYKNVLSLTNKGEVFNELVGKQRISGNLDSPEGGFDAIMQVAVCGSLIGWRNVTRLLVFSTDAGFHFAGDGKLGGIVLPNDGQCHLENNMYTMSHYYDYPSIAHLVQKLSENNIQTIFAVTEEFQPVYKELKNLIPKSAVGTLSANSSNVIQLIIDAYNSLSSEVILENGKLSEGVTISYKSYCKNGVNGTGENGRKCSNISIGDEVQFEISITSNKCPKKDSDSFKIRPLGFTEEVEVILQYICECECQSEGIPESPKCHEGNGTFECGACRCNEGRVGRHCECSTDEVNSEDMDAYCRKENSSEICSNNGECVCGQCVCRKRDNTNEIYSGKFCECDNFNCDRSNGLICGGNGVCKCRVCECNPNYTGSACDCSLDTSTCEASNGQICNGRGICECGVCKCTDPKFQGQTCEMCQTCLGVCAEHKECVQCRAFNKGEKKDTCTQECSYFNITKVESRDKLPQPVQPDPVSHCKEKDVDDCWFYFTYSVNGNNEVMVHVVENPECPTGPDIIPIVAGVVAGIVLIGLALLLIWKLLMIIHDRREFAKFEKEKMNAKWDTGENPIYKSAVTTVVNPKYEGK

[2] = molecular target: T1, human integrin α5β1 on cells …; experiment: cell-based or functional assay; remark: listed apart in the source
[3] = molecular target: T1, human integrin α5β1 on cells …; experiment: FACS on HUVEC (endogenous human α5β1), GeoMean against mAb concentration, fitted; experiment 030207
[4] = molecular target: T1, human integrin α5β1 on cells …; experiment: FACS on HUVEC (endogenous human α5β1), GeoMean against mAb concentration, fitted; experiment 031307
Description: The 22B5/DLE, 24C7/DLE, 1 D9/DLE, and 2D2/DLE antibodies were tested for their binding affinity to cell surface integrin α5 using a FACS assay, employing endogenous human integrin α5β1 expressing cells (HUVEC). Briefly, the cells were detached using trypsin-EDTA and washed with cold PBS. After being aliquoted into 96-well plates, the cells were blocked by serum and incubated with different concentrations of specific mAb for 1 hour at 4° C. Subsequently, the cells were washed and incubated with an anti-human κ secondary antibody conjugated with the R-PE fluorophore and analyzed using a FACSCalibur flow cytometer. 10,000 events were collected for each sample without applying any gating. For KD determination, the Geometric Mean of each sample histogram was calculated and plotted as a function of the mAb concentration. KD was calculated after fitting to a two-state equilibrium model.

ADCC EC50, human PBMCs [1]	IC50, inhibition of HUVEC adhesion to fibronectin (fluorescence 485/535 nM) [2]	Kd [3]	Kd [4]	Binder
0.23 nM	0.43 nM	1.95 nM		B1
		1.69 nM		B2
	0.57 nM			B3
	0.37 nM			B4
		1.68 nM	1.49 nM	B5
		8.78 nM	7.32 nM	B6
